Results on 5 sequences are retold here after patent US20180010117.

Common to all, as to assay: cell_activity
Series [1] has as its system ZFN SBS#61035 (engineered). The note with it: paired with 61029, K562, 800 ng RNA each; 63.6 at 200 ng; with 61028 68.7.
Series [2] deals with ZFN SBS#61033 (engineered). The note with it: paired with 61029, K562, 800 ng RNA each; 76.9 at 200 ng; with 61028 73.5.
The test system of series [3] is ZFN SBS#61041 (engineered). The note with it: paired with 61036, K562, 800 ng RNA each; 14.5 at 200 ng; with 61034 30.1.
The test system of series [4] is ZFN SBS#61042 (engineered). The note with it: paired with 61036, K562, 800 ng RNA each; 12.9 at 200 ng; with 61034 26.1.
The test system of series [5] is ZFN SBS#61036 (engineered). The note with it: paired with 61041, K562, 800 ng RNA each; 14.5 at 200 ng; with 61042 40.6.
For series [6], the system named is ZFN SBS#61034 (engineered). The note with it: paired with 61041, K562, 800 ng RNA each; 9.6 at 200 ng; with 61042 26.1.
Series [7] concerns ZFN SBS#61027 (engineered). The note with it: paired with 61024, K562, 800 ng RNA each; 4.5 at 200 ng.
The subject of series [8] is ZFN SBS#61029 (engineered). The note with it: paired with 61033, K562, 800 ng RNA each; 76.9 at 200 ng; with 61035 80.7.
Series [9] deals with ZFN SBS#61028 (engineered). The note with it: paired with 61033, K562, 800 ng RNA each; 54.3 at 200 ng; with 61035 68.7.

Regarding “CCAATAGGGATAGGTATGAGATATTCAC (double strand) [CEP290 site of 61033/61035]”, the activity in [1] is 80.7 % indels; in series [2], 85.4 % indels.

Turning to “CCAATAGGGATAGGTATGAGATATTCAC (double strand) [CEP290 site of 61041/61042]”, the activity in series [3] came to 43.6 % indels; in [4] it was 40.6 % indels.

With “CCCCAGTTGTAATTGTGAATATCTCATA (double strand) [CEP290 site of 61034/61036]”, the activity in series [5] came out at 43.6 % indels; in series [6], 30.1 % indels.

The sequence “TAGGGATAGGTATGAGATATTCACAATT (double strand) [CEP290 site of 61027]” had an activity in series [7] of 27.1 % indels.

Regarding “TGGCCCCAGTTGTAATTGTGAATATCTC (double strand) [CEP290 site of 61028/61029]”, the activity came to 85.4 % indels in series [8] and 73.5 % indels in series [9].
